Source: PMC6467934, “Cell-Free and Yeast-Based Production of the Malarial Lactate Transporter, PfFNT, Delivers Comparable Yield and Protein Quality” (Frontiers in Pharmacology, 2019)

Target: the molecule itself
Assay: negative-stain transmission electron microscopy with class sums; purified, detergent-solubilized PfFNT (yeast-produced in DM, cell-free in Brij 78); uranyl acetate stain; reference-free alignment without any symmetry imposed

Row | Protein | stoichiometry N
1 | Plasmodium falciparum lactate transporter PfFNT, produced in Pichia pastoris yeast (natural protein, UniProt O77389 1-309, looked up, PfFNT, lactate transporter (formate-nitrite transporter family) of Plasmodium falciparum; monomer printed as 30 kDa, pentamer 150 kDa; Homopentamer; also called cell-based PfFNT; yeast-produced PfFNT; source: P. pastoris (PichiaPink), fermenter culture; membranes solubilized with LDAO, purified (Ni-NTA, size exclusion) in DM; not shown: His10, C-terminal, kept) MPPNNSKYVLDPVSIKSVCGGEESYIRCVEYGKKKAHYSNLNLLAKAILAGMFVGLCAHASGIAGGLFYYHKLREIVGASMSVFVYGFTFPIAFMCIICTGSDLFTGNTLAVTMALYEKKVKLLDYLRVMTISLFGNYVGAVSFAFFVSYLSGAFTNVHAVEKNHFFQFLNDIAEKKVHHTFVECVSLAVGCNIFVCLAVYFVLTLKDGAGYVFSVFFAVYAFAIAGYEHIIANIYTLNIALMVNTKITVYQAYIKNLLPTLLGNYIAGAIVLGLPLYFIYKEHYYNFERSKRDNNDAQMKSLSIELRN | 5
2 | Plasmodium falciparum lactate transporter PfFNT, produced cell-free in an E. coli S30 extract (natural protein, UniProt O77389 1-309, looked up, PfFNT, lactate transporter (formate-nitrite transporter family) of Plasmodium falciparum; codon-optimized open reading frame in pIVEX2.3; monomer printed as 30 kDa, pentamer 150 kDa; Homopentamer; A factor Xa digestion site lies between PfFNT and the C-terminal His10-tag; no cleavage is reported; also called cell-free PfFNT; cell-free produced PfFNT; source: E. coli S30 extract cell-free system …) MPPNNSKYVLDPVSIKSVCGGEESYIRCVEYGKKKAHYSNLNLLAKAILAGMFVGLCAHASGIAGGLFYYHKLREIVGASMSVFVYGFTFPIAFMCIICTGSDLFTGNTLAVTMALYEKKVKLLDYLRVMTISLFGNYVGAVSFAFFVSYLSGAFTNVHAVEKNHFFQFLNDIAEKKVHHTFVECVSLAVGCNIFVCLAVYFVLTLKDGAGYVFSVFFAVYAFAIAGYEHIIANIYTLNIALMVNTKITVYQAYIKNLLPTLLGNYIAGAIVLGLPLYFIYKEHYYNFERSKRDNNDAQMKSLSIELRN | 5
